These binders were tested against cell surface, glycophosphatidylinositol (GPI)-linked human FcRn on HEK 293 cells (human, UniProt P55899 24-297, C-terminal engineered GPI linkage) (assay: IgG competition on 293 cell surface; pH 6.0).

Binder	EC50 [nM]
N023 (antibody) heavy: not shown light: QSALTQPASVSGSPGQSITISCTGTGSDVGSYNLVSWYQQHPGKAPKLMIYGDSERPSGVSNRFSGSKSGNTASLTISGLQAEDEADYYCSSYAGSGIYVFGTGTKVTVLGQPKAAPSVTLFPPSSEELQANKATLVCLISDFYPGAVTVAWKADSSPVKAGVETTTPSKQSNNKYAASSYLSLTPEQWKSHKSYSCQVTHEGSTVEKTVAPTECS	2.48
N022 (antibody) heavy: not shown light: QSALTQPASVSGSPGQSITISCTGTGSDVGSYNLVSWYQQHPGKAPKLMIYGDSERPSGVSNRFSGSKSGNTASLTISGLQAEDEADYYCSSYAGSGIYVFGTGTKVTVLGQPKAAPSVTLFPPSSEELQANKATLVCLISDFYPGAVTVAWKADSSPVKAGVETTTPSKQSNNKYAASSYLSLTPEQWKSHKSYSCQVTHEGSTVEKTVAPTECS	2.93

Results, then the binder that gave them:

EC50 [nM]	Binder
3.24	N026 (antibody) heavy: not shown light: QSALTQPASVSGSPGQSITISCTGTGSDVGSYNLVSWYQQHPGKAPKLMIYGDSERPSGVSNRFSGSKSGNTASLTISGLQAEDEADYYCSSYAGSGIYVFGTGTKVTVLGQPKAAPSVTLFPPSSEELQANKATLVCLISDFYPGAVTVAWKADSSPVKAGVETTTPSKQSNNKYAASSYLSLTPEQWKSHKSYSCQVTHEGSTVEKTVAPTECS
3.25	N027 (antibody) heavy: not shown light: QSALTQPASVSGSPGQSITISCTGTGSDVGSYNLVSWYQQHPGKAPKLMIYGDSERPSGVSNRFSGSKSGNTASLTISGLQAEDEADYYCSSYAGSGIYVFGTGTKVTVLGQPKAAPSVTLFPPSSEELQANKATLVCLISDFYPGAVTVAWKADSSPVKAGVETTTPSKQSNNKYAASSYLSLTPEQWKSHKSYSCQVTHEGSTVEKTVAPTECS
2.48	N024 (antibody) heavy: not shown light: QSALTQPASVSGSPGQSITISCTGTGSDVGSYNLVSWYQQHPGKAPKLMIYGDSERPSGVSNRFSGSKSGNTASLTISGLQAEDEADYYCSSYAGSGIYVFGTGTKVTVLGQPKAAPSVTLFPPSSEELQANKATLVCLISDFYPGAVTVAWKADSSPVKAGVETTTPSKQSNNKYAASSYLSLTPEQWKSHKSYSCQVTHEGSTVEKTVAPTECS
